Usually stoichiometry N stands for the number of molecules, sites or subunits per partner or assembly.

Drawing on article PMC6953117, this text covers percent of particles in the dimer peak (BFA-treated cells), percent of particles in the dimer peak (DMSO-treated cells) and stoichiometry N for 1 substance.

The target in this assay is giantin-WT-GFP (UniProt Q14789). As to the kind of experiment: atomic force microscopy (particle volumes); giantin-GFP isolated with GFP-Trap Magnetic Agarose from DMSO- or BFA-treated HeLa cells (lysate with NEM), treated with 2% β-mercaptoethanol, deposited on mica, tapping mode in air; volumes by the spherical cap model, Gaussian fit of the …. The conditions noted are these: remark: other sources report otherwise.

On to giantin-WT-GFP, Q14789 1-3259, for which the percent of particles in the dimer peak (BFA-treated cells) worked out at 10%, the percent of particles in the dimer peak (DMSO-treated cells) came to 27% and the stoichiometry N is 2.
